Data taken from the supplement of paper PMC10567573.

B1: KRT13 (parent)
chain: YGGGLGGGFGGGFAGGFVDFGACD

Variants of: B1
Test: protein stability index of a GFP-peptide fusion (GPS, HEK-293T) (PSI 1-6); higher = more stable
Settings: c terminus: a fixed tail appended
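Also: lentivirally expressed fusions sorted by FACS into six bins by GFP to DsRed ratio, PSI derived from sequencing read proportions per bin multiplied by bin number.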

Protein stability index: each site, then its substitutions
G15: T 1.61 | Q 2.07 | S 1.77 | R 2.42 | E 1.89 | A 1.2 | W 1.58 | V 3.52 | M 4.08 | K 1.18 | H 1.65 | P 2.71 | N 2.55 | Y 1.67 | I 3.13 | D 2.03
Y1: L 1.92 | H 2.9 | D 3.61 | W 2.08 | R 2.76 | T 2.73 | C 1.52 | E 3.3 | K 2.68 | G 3.48 | I 2.54 | V 3.53 | F 1.16 | P 2.75 | M 2.43 | S 3.23 | N 3.65 | A 2.87 | Q 3.12
G8: I 2.44 | A 1.93 | V 2.48 | Q 1.23 | K 1.24 | E 1.72 | C 1.26 | S 2.72 | P 1.75 | W 3.32 | T 1.77 | D 2.41 | R 1.67 | H 3 | N 1.78
F13: K 2.25 | D 2.1 | S 2.16 | P 2.09 | T 2.07 | L 1.28 | Q 2.8 | M 2.28 | N 1.79 | A 1.55 | E 2.32 | H 2.44 | C 2.11 | R 1.77 | Y 2.39 | V 2.12 | I 1.79 | G 2.08
G3: E 2.33 | C 1.87 | D 1.5 | N 2.2 | M 2.51 | S 1.84 | I 2.29 | F 1.88 | T 2.3 | A 1.77 | H 1.9 | Y 1.21 | R 2.27 | L 1.58 | W 1.18 | V 2.48 | P 2.03 | Q 2.5
G4: I 1.93 | R 2.02 | F 1.7 | E 1.95 | A 1.89 | S 2.42 | V 1.55 | T 1.87 | Q 1.68 | H 1.6 | Y 2.38 | N 1.8 | L 2.14 | P 2.03 | K 2.84 | D 2.52 | W 2.33 | M 1.21
A14: C 2.47 | K 1.82 | S 1.86 | Q 3.11 | I 2.46 | R 2.03 | P 2.02 | W 2.15 | N 1.48 | M 3.11 | Y 2.65 | E 1.81 | V 1.89 | H 3.03 | D 1.86 | F 2.8 | T 1.84
G6: S 1.4 | R 1.54 | C 2.27 | W 3.1 | T 2.19 | F 1.68 | E 2.26 | M 1.81 | P 3.58 | N 1.65 | L 2.86 | I 3.11 | Y 1 | H 1.79 | V 2.12 | K 1.67 | A 2.4 | Q 2.38 | D 1.89
F9: H 2.5 | R 1.69 | S 1.85 | V 1.94 | N 2 | M 1.45 | D 2.46 | A 1.68 | K 1.64 | Q 2.1 | Y 1.69 | G 1.87 | I 1.49 | E 2.65 | L 1.76 | C 1.79 | P 1.75 | T 2.28
G12: N 1.04 | P 2.17 | I 2.4 | T 2.68 | H 1.4 | M 2.92 | W 1.34 | Y 3.95 | R 2.24
